{
  "source": "paper PMC8946809",
  "origin": "cited, not measured here",
  "target": "His516 (UniProt position 538, FRPNYHGVGTC)",
  "experiment": "kinetics",
  "conditions": "enzyme-substrate complex",
  "data": [
    {"substance": "Glucose oxidase (GOx) (Aspergillus niger)", "values": [
      {"measurement": "pKa", "value": "6.9–7.8"}
    ]}
  ]
}
